The chains are these.
B1: MdSOS2 W-box W3 (-303), probe 2 (dsDNA)
DNA 1: TATGAAAACTGGAACTTGGGTTGACTGAATTTACTTCTAATTTCAT
DNA 2: ATGAAATTAGAAGTAAATTCAGTCAACCCAAGTTCCAGTTTTCATA
B2: MdSOS2 W3 mutant probe (dsDNA)
DNA 1: B1 DNA 1 with G23T, A24C
DNA 2: B1 DNA 2 with T23G, C24A
B3: MdNHX1 W-box W1 (-1255) (dsDNA)
DNA 1: ATCATATTTTTACACTAAAAAGTCAATCTTGGTACTATTTATCTTA
DNA 2: TAAGATAAATAGTACCAAGATTGACTTTTTAGTGTAAAAATATGAT
B4: MdNHX1 W1 mutant probe (dsDNA)
DNA 1: B3 DNA 1 with T23G, C24A
DNA 2: B3 DNA 2 with G23T, A24C
B5: MdSOS2 W-box W2 (-149), probe 1 (dsDNA)
DNA 1: TCACAGCCACGTGAATTGAATTGACCAATTTTCCAATTCTGTTTAT
DNA 2: ATAAACAGAATTGGAAAATTGGTCAATTCAATTCACGTGGCTGTGA
B6: MdSOS2 W2 mutant probe (dsDNA)
DNA 1: B5 DNA 1 with G23T, A24C
DNA 2: B5 DNA 2 with T23G, C24A
B7: MdSOS3 W-box probe 1 (W4, -127) (dsDNA)
DNA 1: TAGTGAAGCACATCCGCTCTAGTCAAAGCAGCTACGCTCACGCGTG
DNA 2: CACGCGTGAGCGTAGCTGCTTTGACTAGAGCGGATGTGCTTCACTA

Changes are numbered by the printed parent chain.

Sequence of MdWRKY9 (D9ZJG3 entry or part of it): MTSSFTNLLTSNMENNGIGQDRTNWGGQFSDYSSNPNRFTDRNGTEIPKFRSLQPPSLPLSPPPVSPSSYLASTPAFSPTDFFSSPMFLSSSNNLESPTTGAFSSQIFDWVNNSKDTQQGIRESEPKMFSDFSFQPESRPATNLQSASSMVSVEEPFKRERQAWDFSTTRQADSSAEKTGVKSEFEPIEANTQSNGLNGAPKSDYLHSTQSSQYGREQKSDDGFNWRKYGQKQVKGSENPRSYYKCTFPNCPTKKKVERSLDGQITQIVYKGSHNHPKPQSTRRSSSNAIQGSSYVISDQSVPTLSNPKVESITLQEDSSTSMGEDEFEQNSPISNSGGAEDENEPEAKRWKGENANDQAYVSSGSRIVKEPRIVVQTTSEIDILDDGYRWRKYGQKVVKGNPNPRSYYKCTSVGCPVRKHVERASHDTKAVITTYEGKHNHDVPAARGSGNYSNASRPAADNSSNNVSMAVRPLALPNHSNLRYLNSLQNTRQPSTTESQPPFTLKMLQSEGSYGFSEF

This data set has as its target MdWRKY9 (Malus domestica (apple)?, UniProt D9ZJG3 1-520). The experiment in a line: EMSA; EMSA buffer, salt, pH and temperature not given (refers to earlier method, ref. 35); GST added to equalize protein in JAZ assays. Conditions: protein: recombinant; tags: His (pET32a(+)); label: 3' biotin; blunt. On the technique in general: A gel shift assay detects complexes by their altered migration in electrophoresis.
B1: the binding result was “binds”.
Under B2 stands “no binding”; under B3, “binds”.
To B4 belongs “no binding”; to B5, “binds”.
Under B6 stands “no binding”; under B7, “no binding”.
